Data from patent US8834890B2, “Siderophore conjugate immunogenic compositions and vaccines” (University of Florida Research Foundation, Inc., priority 2009, dated 2014).

B1: OVA: unconjugated ovalbumin, control in the competitive binding ELISA (protein, UniProt P01012 2-386, looked up)
Ovalbumin: GSIGAASMEFCFDVFKELKVHHANENIFYCPIAIMSALAMVYLGAKDSTRTQINKVVRFDKLPGFGDSIEAQCGTSVNVHSSLRDILNQITKPNDVYSFSLASRLYAEERYPILPEYLQCVKELYRGGLEPINFQTAADQARELINSWVESQTNGIIRNVLQPSSVDSQTAMVLVNAIVFKGLWEKAFKDEDTQAMPFRVTEQESKPVQMMYQIGLFRVASMASEKMKILELPFASGTMSMLVLLPDEVSGLEQLESIINFEKLTEWTSSNVMEERKIKVYLPRMKMEEKYNLTSVLMAMGITDVFSSSANLSGISSAESLKISQAVHAAHAEINEAGREVVGSAEAGVDAASVSEEFRADHPFLFCIKHIATNAVLFFGRCVSP

Tests used:
[1] = Iron clearance in non-iron-overloaded, bile-duct cannulated rats; format: in vivo, Sprague-Dawley rats; conditions: 75 μmol/kg s.c.
Method: To support this idea, bile duct-cannulated rats were given vibriobactin (3) subcutaneously (s.c.) at a dose of 75 μmol/kg. The rodents' bile and urine were collected for 48 h to determine if vibriobactin sequestered and promoted the excretion of iron. The iron content of the bile and urine were determined using atomic absorption spectroscopy. This model has been used for many years to evaluate the efficiency with which iron chelators promote the excretion of iron from animals [Bergeron, R. J.; Streiff, R. R.; Creary, E. A.; Daniels, R. D., Jr.; King, W.; Luchetta, G.; Wiegand, J.; Moerker, T.; Peter, H. H. A Comparative Study of the Iron-Clearing Properties of Desferrithiocin Analogues with Desferrioxamine B in a Cebus Monkey Model. Blood 1993, 81, 2166-2173 and Bergeron, R. J.; Streiff, R. R.; Wiegand, J.; Vinson, J. R. T.; Luchetta, G.; Evans, K. M.; Peter, H.; Jenny, H.-B. A Comparative Evaluation of Iron Clearance Models. […]
Four rats were subjected to bile duct-cannulation as previously described. […] The iron content of the bile and urine were assessed by atomic absorption spectroscopy. Iron clearing efficiency was calculated as set forth elsewhere [Bergeron, R. J.; Wiegand, J.; McManis, J. S.; McCosar, B. H.; Weimar, W. R.; Brittenham, G. M.; Smith, R. E. Effects of C-4 Stereochemistry and C-4′ Hydroxylation on the Iron Clearing Efficiency and Toxicity of Desferrithiocin Analogues. […]

BSA-VIB antigen [2] = test: Competitive binding ELISA of polyclonal serum from immunized mice
BSA-VIB antigen, sequence (P02769 25-607): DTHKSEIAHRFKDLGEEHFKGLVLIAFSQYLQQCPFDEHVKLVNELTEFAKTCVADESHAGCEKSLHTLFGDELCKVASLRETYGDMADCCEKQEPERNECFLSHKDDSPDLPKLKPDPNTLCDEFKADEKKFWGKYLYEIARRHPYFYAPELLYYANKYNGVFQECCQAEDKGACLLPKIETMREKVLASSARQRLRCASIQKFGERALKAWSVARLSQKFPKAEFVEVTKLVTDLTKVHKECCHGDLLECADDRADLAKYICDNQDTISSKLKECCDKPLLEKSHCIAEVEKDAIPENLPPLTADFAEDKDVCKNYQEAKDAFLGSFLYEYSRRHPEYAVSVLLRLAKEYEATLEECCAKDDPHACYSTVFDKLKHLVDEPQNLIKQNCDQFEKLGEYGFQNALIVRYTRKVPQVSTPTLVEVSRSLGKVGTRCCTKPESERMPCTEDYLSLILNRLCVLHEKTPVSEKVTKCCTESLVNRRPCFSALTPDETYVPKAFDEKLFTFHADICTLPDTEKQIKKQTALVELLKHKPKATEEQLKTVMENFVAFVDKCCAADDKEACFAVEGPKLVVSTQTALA
Method: In the competitive binding ELISA, sera from immunized mice or non-immunized mice were first incubated with potential antigens f-g, or with OVA-VIB, at antigen concentrations ranging from 0-250 μg/mL. If an antigen is an effective competitor, it will bind to the antibody during this initial incubation, leaving less antibody available to bind to a second antigen coated on the ELISA plate. This “competition” will be reflected in lower p-nitrophenol optical density values.
Competitive binding ELISAs were performed on 1) serum from immunized mice that contained polyclonal antibodies, and 2) purified mAb derived from the cloning of 5A6-2D5 and 2F10-1A9. Medium was used as a negative control, while unconjugated OVA (10 μg/mL, 50 μL/well) served as a […] for the competitive binding ELISA of the polyclonal serum (Table 2) and purified mAb (Table 6). Two types of plates were utilized: a conical bottom polypropylene plate was used for the incubation of the antibody-antigen mixture, whereas a 96-well MAXISORP plate (a high protein-binding capacity polystyrene multi-well ELISA plate) was used for the ELISA.
In brief, the polypropylene incubation plate was blocked with 300 μL of blocking buffer (1% BSA in PBS with 0.02% azide) and was allowed to incubate overnight at 4° C. The following day, the blocking buffer was removed (flicked) from the plate, and the plate was blotted on a paper towel. A 96-well ELISA plate was coated with the BSA-VIB antigen (10 μg/mL, 50 μL/well) that had been diluted in PBS with 0.02% azide. After incubating overnight at 4° C., the plate was washed 4 times (300 μL/wash) as described above, blocked with 300 μL of blocking buffer for 1 h, and washed again.
The OVA-VIB antigen was diluted in blocking buffer in micro centrifuge tubes at antigen concentrations ranging from 0-250 μg/mL. The diluted antigens (50 μL/well) were transferred from the micro centrifuge tubes to the polypropylene incubation plate that had been blocked and washed. Fifty microliters of the diluted polyclonal mouse serum (1:10,000 dilution) or mAb (0.11 μg protein/mL) were added to the incubation plate wells containing the diluted OVA-VIB antigen. The polypropylene plate was then incubated on a rocking platform for 2 h at room temperature, allowing time for the antigen-antibody complexes to form.
A portion of the antigen/antibody mixture (50 μL) was transferred from the polypropylene incubation plate to the BSA-VIB-coated ELISA plate that had been blocked and washed. The ELISA plate was incubated with gentle agitation for 1 h at room temperature and was washed 4 times with the EWB. […] The ELISA plate was allowed to incubate with gentle agitation for 1 h at room temperature and was read at 405 nm, tracking the OD of the yellow water-soluble product, p-nitrophenol. […]

BSA-VIB antigen [3] = test: Competitive binding ELISA of purified monoclonal antibodies
Method: Competitive binding ELISA studies using the purified mAb were conducted. The mAb were first incubated with varying concentrations of the OVA-VIB antigen, from 0-250 μg/mL, prior to being transferred to an ELISA plate that had been coated with the BSA-VIB antigen.
In brief, the polypropylene incubation plate was blocked with 300 μL of blocking buffer (1% BSA in PBS with 0.02% azide) and was allowed to incubate overnight at 4° C. The following day, the blocking buffer was removed (flicked) from the plate, and the plate was blotted on a paper towel. A 96-well ELISA plate was coated with the BSA-VIB antigen (10 μg/mL, 50 μL/well) that had been diluted in PBS with 0.02% azide. After incubating overnight at 4° C., the plate was washed 4 times (300 μL/wash) as described above, blocked with 300 μL of blocking buffer for 1 h, and washed again. […]

[4] = against the BSA-VIB antigen, 10 μg/mL

| Molecule | iron sequestration in vivo (in words) [1] | iron clearing efficiency ([1]; bile and urine collected 48 h) [%] | BSA-VIB Antigen: Optical Density at 405 nm (BSA-VIB antigen [2]; M1 serum 1:10,000 incubated with unconjugated OVA 10 μg/mL) | BSA-VIB Antigen: Optical Density at 405 nm (BSA-VIB antigen [2]; M2 serum 1:10,000 incubated with unconjugated OVA 10 μg/mL) | optical density of serum incubated with OVA greater than serum first incubated with OVA-VIB at the same concentration (BSA-VIB antigen [2]; [4]) [%] | effectiveness as competitor (in words) (BSA-VIB antigen [2]; sera from immunized mice, antigen 0-250 μg/mL) | optical density of mAb incubated with OVA greater than mAb first incubated with OVA-VIB at the same concentration (BSA-VIB antigen [3]; [4]) | effectiveness as competitor (in words) (BSA-VIB antigen [3]; purified mAb, antigen 0-250 μg/mL) |
| --- | --- | --- | --- | --- | --- | --- | --- | --- |
| CC1OC(c2cccc(O)c2O)=NC1C(=O)NCCCN(CCCNC(=O)c1cccc(O)c1O)C(=O)C1N=C(c2cccc(O)c2O)OC1C (centres unmarked) [Compound 3, vibriobactin] | found to sequester iron in vivo | 4.3±1.1 |  |  |  |  |  |  |
| B1 |  |  | 1.152 | 1.655 | 92 | not an effective competitor | approximately 90% | not an effective competitor |
